The experiment concerns the target recombinant human FcγRIIa/CD32 R131 (Lumit binding immunoassay) (human) (UniProt P12318). The experiment can be described thus: Lumit FcγRIIa (CD32) (R131) Binding Immunoassay (Promega), competition with Tracer-LgBiT for FcγR-SmBiT, luminescence, n=1; right panel.

Chain of recombinant human FcγRIIa/CD32 R131 (Lumit binding immunoassay) (human) (P12318 34-217 H167R limits assumed): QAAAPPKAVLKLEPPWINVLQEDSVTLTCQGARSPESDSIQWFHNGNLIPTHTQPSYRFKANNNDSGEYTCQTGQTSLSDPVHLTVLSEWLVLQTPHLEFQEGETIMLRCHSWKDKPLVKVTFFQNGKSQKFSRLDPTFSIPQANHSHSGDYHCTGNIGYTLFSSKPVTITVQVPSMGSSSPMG

For the substance “IgG1 positive control (standard of the Lumit FcγR Binding Immunoassays) (antibody)”, the IC50 (read off the curve) amounted to 3 µg/mL.
